Common to all, as to assay: SPR, KD relative to WT C2;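 also: biacore SPR at 37 °C, anti-C2 mAbs captured on anti-human IgG chips with alanine or serine point mutants of C2 as analyte, KD from 1:1 fit compared with wild-type C2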
A general note: SPR reads the build-up and loss of mass on a sensor chip optically.

One test has as its target T1, human C2 N471A (human, UniProt P06681 21-752).
T1 sequence: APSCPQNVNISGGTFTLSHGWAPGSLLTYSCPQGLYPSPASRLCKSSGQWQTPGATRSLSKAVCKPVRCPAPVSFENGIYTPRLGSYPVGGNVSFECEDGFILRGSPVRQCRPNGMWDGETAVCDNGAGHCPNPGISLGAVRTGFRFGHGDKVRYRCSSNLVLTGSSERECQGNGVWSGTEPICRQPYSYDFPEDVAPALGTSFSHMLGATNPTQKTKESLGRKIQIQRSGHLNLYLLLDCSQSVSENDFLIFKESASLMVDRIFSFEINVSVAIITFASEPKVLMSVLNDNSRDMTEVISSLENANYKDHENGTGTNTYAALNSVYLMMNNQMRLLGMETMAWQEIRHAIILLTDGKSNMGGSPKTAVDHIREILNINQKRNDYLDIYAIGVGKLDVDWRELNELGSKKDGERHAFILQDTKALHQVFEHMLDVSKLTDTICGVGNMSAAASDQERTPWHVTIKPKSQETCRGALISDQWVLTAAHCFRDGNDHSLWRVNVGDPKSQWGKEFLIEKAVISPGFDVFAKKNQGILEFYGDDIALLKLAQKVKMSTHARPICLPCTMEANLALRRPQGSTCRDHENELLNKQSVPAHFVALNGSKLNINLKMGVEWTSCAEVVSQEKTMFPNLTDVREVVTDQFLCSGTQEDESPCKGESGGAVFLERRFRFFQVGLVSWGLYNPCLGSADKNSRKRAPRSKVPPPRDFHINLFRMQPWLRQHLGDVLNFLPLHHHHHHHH

Another test concerns the target T2, human C2 K457A (human, UniProt P06681 21-752).
T2 sequence: T1 sequence with K437A, A451N

The next test addresses T3, human C2 K274A (human, UniProt P06681 21-752).
T3 sequence: T1 sequence with K254A, A451N

In the next test the target is T4, human C2 K329A (human, UniProt P06681 21-752).
T4 sequence: T1 sequence with K309A, A451N

Positions count from the first letter of the chain named.

B1: RF16-242 (antibody, human IgG4 S228P, lambda, V domains shown)
VH: EVQLLQSGAEVKKPGESLKISCKGSGYSFTSYWIGWVRQMPGKGLEWMGIIYPGDSDTRYSPSFQGQVTISADKSISTAYLQWSSLKASDTAMYYCARRGHYGDYFDYWGQGTLVTVSS
VL: SYELTQPPSVSVSPGQTARITCSGDALPKKYAYWYHQKSGQAPVLVIYEDRRRPSEIPERFSGSSSGTMATLTITGAQVEDEGVYFCYSRDRAGNQRVFGGGTQLTVLG
notes: pH-dependent anti-C2 antibody from a phage display library
As to B1, the Fold diff amounted to 1 fold in the test with human C2 N471A, 33 fold with human C2 K457A, 12 fold in the test with human C2 K274A and 2 fold in the test with human C2 K329A.

The values above are taken from patent publication US20220332804A1 (CSL INNOVATION, published 2022).
